From publication PMC8240970, “Orally delivered polycurcumin responsive to bacterial reduction for targeted therapy of inflammatory bowel disease” (Drug Delivery, 2017)
Marks after values point to notes of the source that are not given here.

What was measured:
DSS-induced IBD = experiment: Pharmacodynamics in a murine DSS-induced IBD model (body weight, DAI, colon length, histology); type: in vivo, female C57BL/6 mice; details: for disease activity index (DAI) / recovery of shortened colon length / weight loss: 3% DSS for seven days, daily gavage, Cur 50 mg/kg; for weight loss: versus DSS or Cur suspension
Experimental: (§1) Animal experiments were performed in female C57BL/6 mice (eight weeks, 18–20 g). Colitis was induced by feeding mice with a 3% (wt./vol) DSS solution as drinking water for seven days. The daily evaluation of mice was based on changes in body weight and development of the clinical symptoms of colitis. Disease activity index (DAI) was calculated according to the parameter previously reported (Li et al., [2015]). […] The dosage of Cur was set at 50 mg/kg. Mice were sacrificed on day 7, and histological assessment of colonic inflammation was carried out by hematoxylin and eosin (H&E) staining of 5 μm colonic tissue sections, observed by microscopy (×20 magnification). The samples were scored for inflammatory infiltration (0–3), epithelial abnormality (0–3) and crypt damage (0–3) and then the values of the three variables were summed as an indicator of inflamed degree (Magro et al., [2013]).

IL-6 = IL-6 level in colonic tissue by ELISA, DSS-induced IBD mice; type: in vivo, female C57BL/6 mice; details: oral, Cur 50 mg/kg
Experimental: as §1, with “[2013]). The levels of IL-6 and TNF-α in homogenized colonic tissue were measured by quantitative enzyme-linked immunosorbent assay (ELISA) kits according to manufacturer’s instructions (R&D Systems Inc., Minneapolis, MN). The final values of IL-6 and TNF-α were expressed as pg/mg or ng/mg protein (Qiao et al., [2014]).” for “[2013]).”

TNF-α = TNF-α level in colonic tissue by ELISA, DSS-induced IBD mice; type: in vivo, female C57BL/6 mice; details: oral, Cur 50 mg/kg
Experimental: as §1, with “[2013]). The levels of IL-6 and TNF-α in homogenized colonic tissue were measured by quantitative enzyme-linked immunosorbent assay (ELISA) kits according to manufacturer’s instructions (R&D Systems Inc., Minneapolis, MN). The final values of IL-6 and TNF-α were expressed as pg/mg or ng/mg protein (Qiao et al., [2014]).” for “[2013]).”

Caco-2 cells [1] = experiment: In vitro cytotoxicity by MTT assay; details: 1 to 100 μg/mL Cur, 2 h incubation
Experimental: In vitro cytotoxicity of PCur and Cur solution was assessed in Caco-2 cells by MTT assay. Caco-2 cells were seeded at a density of 1 × 10^5 cells/mL in 100 μL DMEM culture medium in a 96-well plate at 37 °C and 5% CO2. After 24 h of incubation, Caco-2 cells were exposed to Cur and PCur solution with different Cur concentrations for 2 h. Meanwhile, serum-free medium incubation without drug was utilized as a control. MTT solution (20 μL, 5 mg/mL in PBS) was then added to each well, and the cells were further incubated for 4 h. The supernatant was removed and 100 μL of DMSO was introduced to each well to dissolve formazan crystals. Optical density (OD) was measured with a microplate reader (Thermo Scientific, Waltham, MA) at 570 nm. The experiments were repeated at least four times. Cell viability (%) was calculated as the ratio of OD in test samples to OD in control samples.

Caco-2 cells [2] = experiment: LDH release assay; details: 25 μg/mL Cur, within 2 h, versus control
Experimental: A lactate dehydrogenase (LDH) assay kit (Beyotime, Haimen, China) was used to determine the ability of PCur to destroy cell membranes. Briefly, Caco-2 cells seeded in a 96-well plate were incubated with Cur solution and PCur at 25 μg/mL concentration of Cur for 2 h, and serum-free medium was used as a control. After 1 h of incubation, 20 μL LDH release medium was added, followed by 1 h of co-incubation. One hundred and twenty microliter supernatant was transferred to a new plate at a determined time interval, followed by the addition of 60 μL LDH test medium and incubated for 30 min with gentle shaking. Finally, the absorption was measured at 490 nm on a microplate reader (Bio-Rad 500, Hercules, CA).

[3] = In vitro release of PCur under different pH conditions; type: physicochemical
Experimental: Effect of pH values on drug release was also evaluated in the following buffers: hydrochloric acid/potassium chloride (pH 1.2), acetic acid/sodium acetate (pH 6.5) and PBS (pH 7.4). Buffer selection was based on the normal variations of the pH in the GIT from the stomach (pH 1.5) and the proximal small intestine (pH 6.0–6.8) to the ileocecal region (pH 7.3) (Hua et al., [2015]). One milliliter of sample (containing 1.2 mg of Cur) was placed in a dialysis bag, immersed into each media containing 0.1% (w/v) Tween 80 for drug release.

[4] = In vitro release of Cur from PCur in pH 7.4 PBS with or without GSH; type: physicochemical
Caco-2 cell monolayer = experiment: Transcellular study, apparent permeability coefficient; type: in vitro ADME
Experimental: A 400 μL of culture medium was added to the apical (AP) side, and 600 μL was added to the basolateral (BL) side. The medium in both the AP and BL sides was changed every two days for the first week and every day thereafter. After 21 days of incubation, the integrity of the cell monolayers was evaluated by measuring transepithelial electrical resistance (TEER) values using a Millicell® electrical resistance system (Millipore, Billerica, MA). When the TEER value of inserts exceeded […], indicating cell monolayers were integrated and tight junctions were intact, they were selected for further transport studies. For transcellular research, the culture medium in the AP and BL side was removed and changed by HBSS. […] Six hundred microliter of fresh HBSS was added to the BL side. […] One hundred microliter of sample was mixed with 50 μL chloramphenicol (IS) and 50 μL acetonitrile, vortexed and centrifuged. The concentration of Cur in supernatant was determined by UPLC–MS/MS. At the end of the experiment, TEER values were assayed to estimate the integrity of the cell monolayers. The apparent permeability coefficient (Papp) for Cur was calculated according to the following equation: Papp=(dQ/dt)/(A×C0) where the dQ/dt was the drug permeation rate, A was the surface area of polycarbonate membrane and C0 was the initial concentration of Cur in AP side.

[5] = In vitro stability testing of PCur (size by DLS, morphology by TEM); type: physicochemical; details: 37 °C
From the text: A small portion of solution was collected at predetermined time points to measure the size distribution of PCur conjugate by DLS.

[6] = Pharmacokinetic study after oral administration; set-up: species or system Sprague–Dawley (SD) rats; details: rat, in vivo, 50 mg/kg
Experimental: Pharmacokinetics of PCur and Cur suspension were tested in SD rats, which were randomly divided into two study groups with six in each group. […] Three hundred microliter of blood samples were collected at 5, 10, 15, 30 and 45 min, 1, 2, 4, 8, 12 and 24 h post oral gavage and centrifuged at 12 000 rpm for 10 min. The supernatant plasma was collected and stored at −20 °C for UPLC–MS/MS analysis. The concentration of Cur was determined by a Waters ACQUITY UPLC system using a Xevo Triple Quadrupole MS equipped with an electrospray ionization (ESI) interface (Waters Co., Milford, MA). One hundred microliter plasma was mixed with 50 μL chloramphenicol (IS) and 50 μL acetonitrile, followed by vortexing for 3 min, and centrifuged at 12 000 rpm for 10 min. […] An aliquot of 5 μL was injected into the UPLC–MS/MS for analysis. Pharmacokinetic parameters were calculated using DAS 2.1 software (BioGuider Co., Shanghai, China).

MDA content = experiment: Malondialdehyde (MDA) content of colon of DSS-induced IBD mice; type: in vivo, female C57BL/6 mice; details: oral, Cur 50 mg/kg
Experimental: as §1, with “[2013]). Lipid peroxidation was evaluated by measuring the MDA content of the colon according to standard procedure protocol described in MDA Assay Kit (Beyotime, Haimen, China). In short, the colorimetric determination of MDA is based on the reaction of the reactive aldehyde with thiobarbituric acid at low pH (2–3) and temperature of 95 °C for 45 min. The pinkish resultant was extracted by n-butanol, and the absorbance was determined at 535 and 520 nm spectrophotometrically. […]” for “[2013]).”

[7] = Particle size and zeta potential by dynamic light scattering; type: physicochemical; details: in water, 25 °C
MPO activity = experiment: Myeloperoxidase (MPO) activity in colon of DSS-induced IBD mice; type: in vivo, female C57BL/6 mice; details: oral, Cur 50 mg/kg
Experimental: as §1, with “[2013]). Neutrophil infiltration into the colon can be quantified by measuring MPO activity. […] The homogenate was then sonicated for 10 s, freeze-thawed three times, and centrifuged at 12 000 rpm for 15 min. The supernatant was then added to 1 mg/mL o-dianisidine hydrochloride and 0.0005% hydrogen peroxide, and the change in absorbance at 460 nm was measured.” for “[2013]).”

[8] = Drug-loading content (Cur content in PCur); type: physicochemical

Compound: O=C(O)c1cc(/N=N/c2ccc(S(=O)(=O)Nc3ccccn3)cc2)ccc1O [SSZ, sulfasalazine, reference compound]
- disease activity index (DAI) (DSS-induced IBD): successfully mitigated
- recovery of shortened colon length (DSS-induced IBD): strongest efficacies
- weight loss (DSS-induced IBD): less weight loss
- inhibition of the production of IL-6 in colonic tissue (IL-6): strongest efficacy
- inhibition of the production of TNF-α in colonic tissue (TNF-α): strongest efficacy

Compound: COc1cc(/C=C/C(=O)CC(=O)/C=C/c2ccc(O)c(OC)c2)ccc1O [Cur solution, Curcumin]
- cellular viability (Caco-2 cells [1]): neither Cur solution nor PCur induced any significant changes
- LDH leakage (Caco-2 cells [2]): no significant LDH leakage

Compound: PEG-ss-curcumin [PCur]
- disease activity index (DAI) (DSS-induced IBD): successfully mitigated
- recovery of shortened colon length (DSS-induced IBD): strongest efficacies
- weight loss (DSS-induced IBD): less weight loss
- histological examination of colon (H&E) (DSS-induced IBD; day 7, versus DSS mice receiving PBS or Cur suspension): intact epitheliums, well-defined crypt structures and relatively low levels of neutrophil invasion
- inhibition of the production of IL-6 in colonic tissue (IL-6): strongest efficacy
- Cur released ([3]; buffer of pH 6.5, 24 h): less than 25%
- Cur released ([3]; buffer of pH 6.5, first 2 h): 10%
- pH-responsive release characteristic ([3]; pH 7.4, 6.5 and 1.2): No significant pH-responsive release characteristic
- Cur released ([4]; pH 7.4 PBS with 10 mM GSH, in 2 h): ~30%
- Cur released ([4]; pH 7.4 PBS with 10 mM GSH, within 24 h): 53%
- Cur released ([4]; pH 7.4 buffer, without or with 10 μM GSH, first 2 h): less than 10%
- Cur released ([4]; pH 7.4 buffer, without or with 10 μM GSH, within 24 h): approximately 15%
- apparent permeability coefficient (Papp) of Cur (Caco-2 cell monolayer): 2.38 ± 0.29 × 10^−6 cm/s
- change of particle size distribution ([5]; pH 1.2 and pH 7.4 PBS): little change
- change of mean diameter ([5]; pH 7.4 PBS with 10 mM GSH): substantially increased
- AUC0–24 h [6]: 202.05 ± 6.72^b h ng/mL
- AUC0–∞ [6]: 223.52 ± 5.25^b h ng/mL
- AUC(0 − 24) increase relative to Cur suspension [6]: 8.63 times
- Cmax [6]: 23.35 ± 0.96^b ng/mL
- Cmax relative to Cur suspension [6]: 3.41 fold
- MRT0–∞ [6]: 9.60 ± 2.28^a h
- T1/2 [6]: 6.77 ± 1.40 h
- Tmax [6]: 0.50 ± 0.25^a h
- inhibition of the production of TNF-α in colonic tissue (TNF-α): strongest efficacy
- MDA content in colonic tissue (MDA content): strongly decreased
- average particle size ([7]; DLS): 134.4 ± 4.2 nm
- Zeta potential [7]: −3.3 ± 1.2 mV
- MPO activity in colonic tissue (MPO activity): strongly decreased
- loading content ([8]; calculated from integrated areas of 1H NMR spectra): 12.5%
- loading content ([8]; determined by fluorescence spectra): ~14.6%
